Data taken from patent US20150018228A1, “ENZYME DETECTION BY MICROFLUIDICS” (priority 2011, published 2015).

Experiments:
Type in all cases: biochemical, Plasmodium falciparum
pfTopI [1] = assay: Cleavage-ligation assay with radio-labeled DNA substrates in absence or presence of camptothecin; conditions: 60 μM CPT, duplex OL62/OL63, 20 min at 37° C.
Method: Detection of PfTopI activity using radio-labeled DNA substrates: DNA cleavage reactions were carried out by incubating 20 nM duplex OL37/OL56 or OL62/OL63 with 500 fmol of pfTopI or hTopI in the absence or presence of 60 μM CPT for 20 min at 37° C. in 10 mM Tris (pH 7.5), 5 mM MgCl2, and 5 mM CaCl2 in a final volume of 20 μl. After the 20 min incubation, reactions were stopped with 0.5% (w/v) SDS. Samples were subjected to ethanol precipitation, resuspended in 10 μl of 1 mg/ml trypsin and incubated at 37° C. for 30 min. Reaction products were analyzed by denaturing polyacrylamide gel electrophoresis following standard procedures, and radioactive bands were visualized by PhosphorImaging.

pfTopI [2] = assay: RCA-based biosensor (REEAD) circularization of oligonucleotide substrates by purified pfTopI
Method: As shown in FIG. 1A and FIG. 4, in contrast to its human counterpart, pfTopI is able to cleave close to DNA ends with high efficiency. […] To address this possibility, purified pfTopI was incubated with each of the substrates Su2-Su6 (FIG. 1B) and the products analysed using the RCA based detection system as schematically outlined in FIG. 1C. The sequence of the substrates Su4, Su5, and Su6 was modified to match the sequence that was cleaved with high efficiency in substrate XX.
Based on this, five different oligonucleotides with potential of being circularized specifically by pfTopI cleavage-ligation were designed. These oligonucleotides (PfTop1(S1-S5)) all folded into a hairpin structure containing a probe- and a primer-annealing sequence in the single-stranded loop and a potential pfTopI recognizable sequence at the end of the double-stranded stem region (FIG. 1b). […] To allow comparative quantification of signals generated in different reactions, a known concentration of control-circle with a unique probe-annealing sequence was added to the reaction mixtures before RCA and resulting RCPs visualized using a green-fluorescent probe. […]
(§1) The 5′-amine-conjugated primer was coupled to CodeLink Activated Slides (SurModics) according to the manufacturer's description. […] Quantification of pfTopI specific signals was performed as previously described^1.

pfTopI [3] = assay: REEAD in nuclear extract from HEK293T cells with or without spike-in pfTopI; conditions: signals only with spike-in pfTopI
Method: The use of Su2 for detecting pfTopI activity in human cell extracts in the RCA-based biosensor setup was also verified. […] As a control for successful RCA and probe annealing a circularized control circle was added to each sample before annealing to the primer coated slide. […] As expected, comparative levels of green and blue spots corresponding to RCPs from […] and control circles, respectively, could be observed in both samples (FIG. 2A).
The specificity of pfTopI(S1) for pfTopI in crude biological samples was addressed using nuclear extract from human HEK293T cells with or without spike-in pfTopI as a model for Plasmodium infection. […] Consequently, green signals observed in FIG. 22b, right panel, originated from hTopI and pfTopI activity in combination where pfTopI(S1) and S(TopI) competed for reaction by pfTopI at the expense of sensitivity.
Human embryonic kidney HEK293T cells were cultured in Dulbecco's Modified Eagle Medium (GIBCO) supplemented with 10% fetal bovine serum (FBS) (GIBCO), 100 units/mL penicillin and […] streptomycin (Invitrogen). Cells were incubated in a humidified incubator (5% CO2/95% air atmosphere at 37° C.). […]
as §1

pfTopI [4] = assay: REEAD with HRP-mediated colorimetric readout, purified pfTopI; conditions: purified pfTopI circularizing S1
Description: To investigate if the Plasmodium-specific REEAD could be adapted to simple colorimetric readout, suitable for low-resource settings without compromising sensitivity, an additional enzymatic step was introduced to the assay by coupling streptavidin-fused HRP to biotinylated RCPs as described by Yan, J. et al. An on-nanoparticle rolling-circle amplification platform for ultrasensitive protein detection in biological fluids. Small 6, 2520-2525 (2010). HRP oxidizes colorless tetramethylbenzidine to a blue-colored form, detectable to the naked eye or by spectrophotometric measurements. This, of course, is at the expense of the possibility of multiplexing since RCPs originating from different circles cannot be distinguished. […] This, however, imposed the advantage of preventing competition between S(TopI) and pfTopI(S1) for pfTopI, as discussed above. The two readout formats were compared by reacting pfTopI(S1) with increasing dilutions of extracts from blood sample #2 followed by microscopic visualization of RCPs or by spectrophotometric measurement of HRP substrate conversion. As evident from FIG. 23 colorimetric readout increased sensitivity of REEAD by a factor two compared to microscopic readout. […]

CC[C@@]1(O)C(=O)OCc2c1cc1n(c2=O)Cc2cc3ccccc3nc2-1 [camptothecin]
effect on ligation product formation by pfTopI (pfTopI [1]): ligation product is only observed upon incubation of the substrate with pfTopI in the absence of camptothecin

B1: S(TopI): self-folding oligonucleotide substrate for human topoisomerase I, SEQ ID NO: 25 (nucleic acid)
chain: AGAAAAATTTTTAAAAAAACTGTGAAGATCGCTTATTTTTTTAAAAATTTTTCTAAGTCTTTTAGATCCCTCAATGCTGCTGCTGTACTACGATCTAAAAGACTTAGA
modifications: listed as DNA, chemistry not fully specified
circularization (conversion to closed circles) by pfTopI (pfTopI [2]; purified recombinant pfTopI, RCA and fluorescent probe readout): circularizes S(TopI)

B2: pfTopI(S1): hairpin oligonucleotide sensor circularized by pfTopI, SEQ ID NO: 8 (nucleic acid)
chain: TCTAGAAAGTATAGGAACTTCGAACGACTCAGAATGACTGTGAAGATCGCTTATCCTCAATGCACATGTTTGGCTCCCATTCTGAGTCGTTCGAAGTTCCTATACTTT
modifications: chemistry not fully specified
specificity for pfTopI in crude human cell extract (pfTopI [3]): specificity of pfTopI(S1) for pfTopI even on a background of human nucleus content | circularization efficiency by pfTopI, substrate signals relative to control circle signals (pfTopI [2]; purified pfTopI, compared among the tested substrates): the most efficient sensor of pfTopI | detection of pfTopI, spectrophotometric measurement of HRP reaction (pfTopI [4]; FIG. 27): 2 aM | detection of pfTopI, direct visual detection of HRP reaction (pfTopI [4]; data not shown): 200 aM
